Laboratory results: patent US20120165267A1 (Genentech, published 2012)

Assays:
DR5-IgG [1] = molecular target: T1, DR5-IgG (human, UniProt O14763 56-184); test: BIAcore, immobilized receptor-IgG
T1 construct: also called Apo-2-IgG; not shown: IgG part; prepared as in WO98/51793, not described here

DR5-IgG [2] = molecular target: T1, DR5-IgG; test: BIAcore, immobilized receptor-IgG; against wild-type Apo2L/TRAIL(114-281)
Experimental: (§1) Briefly, dissociation constants (Kd) for binding of Apo-2L variants (see Tables II and III) to immobilized receptor immunoadhesins were determined from surface plasmon resonance (SPR) measurements on a Pharmacia BIAcore 3000. DR5-IgG (also referred to as Apo-2-IgG) and DcR2-IgG receptor immunoadhesins were prepared as described in WO98/51793 published Nov. 19, 1998 and WO99/10484 published Mar. 9, 1999, respectively. DR4-IgG was prepared as follows. […] Sensorgrams were recorded for Apo-2L binding at concentrations ranging from 15.6 nM to 500 nM in 2-fold increments. The kinetics constants were determined by non-linear regression analysis and used to calculate the binding constants.
KD values determined by BIAcore analysis are reported relative to the value calculated for the wild-type protein. Apoptosis-induction is evaluated from the ED₅₀ value (ng/mL) in the presence and absence of 2 μg/mL M2 antibody (Sigma).

DR5-IgG [3] = molecular target: T1, DR5-IgG; test: BIAcore; against Flag.Apo2L.WT
Experimental: as §1

DcR2-IgG = molecular target: T2, DcR2-IgG (UniProt Q9UBN6 56-211); test: AlphaQuest (CARB-AQ) displacement of biotinylated Apo2L/TRAIL from receptor-IgG; against Flag-Apo2L.WT
T2 sequence (Q9UBN6 whole entry, species assumed, looked up): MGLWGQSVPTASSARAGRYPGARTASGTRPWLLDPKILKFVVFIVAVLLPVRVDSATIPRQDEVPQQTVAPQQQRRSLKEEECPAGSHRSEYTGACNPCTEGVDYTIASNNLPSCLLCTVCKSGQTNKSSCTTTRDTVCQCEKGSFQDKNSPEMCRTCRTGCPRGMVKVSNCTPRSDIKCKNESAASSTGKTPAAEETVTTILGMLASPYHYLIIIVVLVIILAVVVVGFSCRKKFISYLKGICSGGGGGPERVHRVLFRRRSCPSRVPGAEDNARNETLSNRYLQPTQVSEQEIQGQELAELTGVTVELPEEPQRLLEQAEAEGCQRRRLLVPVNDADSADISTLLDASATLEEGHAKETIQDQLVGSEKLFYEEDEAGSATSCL

DR5-IgG [4] = molecular target: T1, DR5-IgG; test: as above
DcR1 receptor-IgG = molecular target: T3, DcR1 receptor-IgG (UniProt O14798 26-236); test: as above
T3 construct: Captured as receptor-IgG on Protein A beads; construct not described
T3 sequence (O14798 whole entry, species assumed, looked up): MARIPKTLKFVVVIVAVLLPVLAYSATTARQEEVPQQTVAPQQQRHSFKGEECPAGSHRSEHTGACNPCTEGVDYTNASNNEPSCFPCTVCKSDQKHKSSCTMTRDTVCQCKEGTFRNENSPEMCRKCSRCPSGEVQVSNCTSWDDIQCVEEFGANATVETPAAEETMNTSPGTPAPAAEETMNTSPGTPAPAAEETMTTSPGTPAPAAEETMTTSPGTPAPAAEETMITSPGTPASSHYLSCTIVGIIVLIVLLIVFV

DR5-IgG [5] = molecular target: T1, DR5-IgG; test: competition phage ELISA: phage clone on wells coated with DR4-IgG, competed by rising soluble DR5-IgG, bound phage detected with anti-M13 antibody-HRP, A450
Experimental: Relative binding strengths for 4 of the clones from the DR4 library were determined by competition phage ELISA (FIGS. 15 and 16). In this assay, a fixed concentration of phage is added to wells coated with receptor-IgG in the presence of an increasing concentration of receptor-IgG in solution. After incubation to allow binding and washing to remove unbound phage, the bound phage is determined with the HRP-coupled, anti-M13 antibody (Pharmacia). Analysis of the ELISA signal as a function of receptor-IgG concentration in solution by using a 4-parameter fit yields the IC50 value. Since the IC50 value will vary with phage concentration, the phage clones were first titered to determine the dilution giving equal signal strength for the 4 clones.

BSA = molecular target: T4, BSA (UniProt P02769 25-607); test: spot ELISA, phage on coated protein
T4 construct: Control protein of the spot ELISA

B1: Apo2L.DR5-8 (ligand)
chain: VRERGPQRVAAHITGTRGRSNTLSSPNSKNEKALGRKINSWESSRSGHSFLSNLHLRNGELVIHEKGFYYIYSQTQFKFREEIKENTKNDKQMVQYIYKYTSYPDPILLMKSARNSCWSKDAEYGLYSIYQGGIFELKENDRIFVSVTNERLLQMDHEASFFGAFLVG
notes: also called Apo2L/TRAIL.DR5-8
DR5-binding (ratio relative to wild-type Apo2L) (DR5-IgG [1]): 0.6 ratio

B2: Apo2L/TRAIL(114-281) mutant DR5-21 (ligand)
chain: VRERGPQRVAAHITGTRGRSNTLSSPNSKNEKALGRKINSWESSRSGHSFLSNLHLRNGELVIHEKGFYYIYSQTAFKFKEEIKENTKNDKQMVQYIYKYTSYPDPILLMKSARNSCWSKDAEYGLYSIYQGGIFELKENDRIFVSVTNEDLLNMEHEASFFGAFLVG
notes: Untagged, from pAPOK5.0; h-0007 lists D267Q
KD ratio (mutant/wt) (DR5-IgG [2]): 1.2 ratio

B3: Apo2L/TRAIL(114-281) mutant DR5-4 (ligand)
chain: VRERGPQRVAAHITGTRGRSNTLSSPNSKNEKALGRKINSWESSRSGHSFLSNLHLRNGELVIHEKGFYYIYSQTAFRFREEIKENTKNDKQMVQYIYKYTSYPDPILLMKSARNSCWSKDAEYGLYSIYQGGIFELKENDRIFVSVTNEQLLDMNHEASFFGAFLVG
notes: Untagged, from pAPOK5.0
KD ratio (mutant/wt) (DR5-IgG [2]): 1.3 ratio

B4: Flag.Apo2L.DR5-23 (ligand)
chain: VRERGPQRVAAHITGTRGRSNTLSSPNSKNEKALGRKINSWESSRSGHSFLSNLHLRNGELVIHEKGFYYIYSQTAFKFREEIKENTKNDKQMVQYIYKYTSYPDPILLMKSARNSCWSKDAEYGLYSIYQGGIFELKENDRIFVSVTNESLLDMEHEASFFGAFLVG
notes: not shown: N-terminal flag tag from pFLAG-MAC
DR5 KD (mut/wt) (DR5-IgG [3]): 2.4 ratio | IC50 ratio (mutant/wt) (DcR2-IgG): 24 ratio | IC50 ratio (mutant/wt) (DR5-IgG [4]): 2.3 ratio

B5: Apo2L.DR5-8C (ligand)
chain: VRERGPQRVAAHITGTRGRSNTLSSPNSKNEKALGRKINSWESSRSGHSFLSNLHLRNGELVIHEKGFYYIYSQTQFKFREEIKENTKNDKQMVQYIYKYTSYPDPILLMKSARNSCWSKDAEYGLYSIYQGGIFELKENDRIFVSVTNEHLLDMDHEASFFGAFLVG
notes: Subcloned into pAPOK5.0 (114-281 form)
DR5-binding (ratio relative to wild-type Apo2L) (DR5-IgG [1]): 0.6 ratio

B6: Flag.Apo2L.DR5-1 (ligand)
chain: VRERGPQRVAAHITGTRGRSNTLSSPNSKNEKALGRKINSWESSRSGHSFLSNLHLRNGELVIHEKGFYYIYSQTAFKFKEEIKENTKNDKQMVQYIYKYTSYPDPILLMKSARNSCWSKDAEYGLYSIYQGGIFELKENDRIFVSVTNEALIDMDHEASFFGAFLVG
notes: as for B4
DR5 KD (mut/wt) (DR5-IgG [3]): 2.2 ratio | IC50 ratio (mutant/wt) (DcR2-IgG): 32 ratio | IC50 ratio (mutant/wt) (DR5-IgG [4]): 2.4 ratio

B7: Flag.Apo2L.DR5-2 (ligand)
chain: VRERGPQRVAAHITGTRGRSNTLSSPNSKNEKALGRKINSWESSRSGHSFLSNLHLRNGELVIHEKGFYYIYSQTAFKFKEEIKENTKNDKQMVQYIYKYTSYPDPILLMKSARNSCWSKDAEYGLYSIYQGGIFELKENDRIFVSVTNEHLIDMDHEASFFGAFLVG
notes: as for B4
DR5 KD (mut/wt) (DR5-IgG [3]): 1.9 ratio | IC50 ratio (mutant/wt) (DcR2-IgG): 5 ratio | IC50 ratio (mutant/wt) (DR5-IgG [4]): 2.8 ratio

B8: Flag.Apo2L.DR5-21 (ligand)
chain: VRERGPQRVAAHITGTRGRSNTLSSPNSKNEKALGRKINSWESSRSGHSFLSNLHLRNGELVIHEKGFYYIYSQTAFKFKEEIKENTKNDKQMVQYIYKYTSYPDPILLMKSARNSCWSKDAEYGLYSIYQGGIFELKENDRIFVSVTNEDLLNMEHEASFFGAFLVG
notes: as for B4
DR5 KD (mut/wt) (DR5-IgG [3]): 1 ratio | IC50 ratio (mutant/wt) (DcR2-IgG): 9.4 ratio | IC50 ratio (mutant/wt) (DR5-IgG [4]): 1.9 ratio

B9: Flag.Apo2L.DR4-8 (ligand)
chain: VRERGPQRVAAHITGTRGRSNTLSSPNSKNEKALGRKINSWESSRSGHSFLSNLHLRNGELVIHEKGFYYIYSQTAFRFSEEIKEVTRNDKQMVQYIYKWTDYPDPILLMKSARNSCWSKDAEYGLYSIYQGGIFELKENDRIFVSVTNEHLIDMDHEASFFGAFLVG
notes: as for B4
DR5 KD (mut/wt) (DR5-IgG [3]): 1100 ratio | IC50 ratio (mutant/wt) (DcR2-IgG): 15 ratio | IC50 ratio (mutant/wt) (DcR1 receptor-IgG): 5.5 ratio

B10: Apo2L/TRAIL(114-281) mutant DR5-11 (ligand)
chain: VRERGPQRVAAHITGTRGRSNTLSSPNSKNEKALGRKINSWESSRSGHSFLSNLHLRNGELVIHEKGFYYIYSQTAFRFKEEIKENTKNDKQMVQYIYKYTSYPDPILLMKSARNSCWSKDAEYGLYSIYQGGIFELKENDRIFVSVTNEGLVDMSHEASFFGAFLVG
notes: Untagged, from pAPOK5.0
KD ratio (mutant/wt) (DR5-IgG [2]): 2.2 ratio

B11: Apo2L/TRAIL(114-281) mutant DR5-5 (ligand)
chain: VRERGPQRVAAHITGTRGRSNTLSSPNSKNEKALGRKINSWESSRSGHSFLSNLHLRNGELVIHEKGFYYIYSQTSFRFTEEIKENTKNDKQMVQYIYKYTSYPDPILLMKSARNSCWSKDAEYGLYSIYQGGIFELKENDRIFVSVTNEGLLDMNHEASFFGAFLVG
notes: Untagged, from pAPOK5.0
KD ratio (mutant/wt) (DR5-IgG [2]): 2.5 ratio

B12: Flag.Apo2L.DR5-8 (ligand)
chain: VRERGPQRVAAHITGTRGRSNTLSSPNSKNEKALGRKINSWESSRSGHSFLSNLHLRNGELVIHEKGFYYIYSQTQFKFREEIKENTKNDKQMVQYIYKYTSYPDPILLMKSARNSCWSKDAEYGLYSIYQGGIFELKENDRIFVSVTNERLLQMDHEASFFGAFLVG
notes: also called Flag-Apo21.DR5-8; not shown: N-terminal flag tag from pFLAG-MAC
DR5 KD (mut/wt) (DR5-IgG [3]): 0.8 ratio | IC50 ratio (mutant/wt) (DR5-IgG [4]): 0.7 ratio

B13: Apo2L/TRAIL(114-281) mutant DR5-23 (ligand)
chain: VRERGPQRVAAHITGTRGRSNTLSSPNSKNEKALGRKINSWESSRSGHSFLSNLHLRNGELVIHEKGFYYIYSQTAFKFREEIKENTKNDKQMVQYIYKYTSYPDPILLMKSARNSCWSKDAEYGLYSIYQGGIFELKENDRIFVSVTNESLLDMEHEASFFGAFLVG
notes: Untagged, from pAPOK5.0
KD ratio (mutant/wt) (DR5-IgG [2]): 2.4 ratio

B14: Flag.Apo2L.DR4-9 (ligand)
chain: VRERGPQRVAAHITGTRGRSNTLSSPNSKNEKALGRKINSWESSRSGHSFLSNLHLRNGELVIHEKGFYYIYSQTAFRFSEEIKERTRNDKQMVQYIYKWTDYPDPILLMKSARNSCWSKDAEYGLYSIYQGGIFELKENDRIFVSVTNEHLIDMDHEASFFGAFLVG
notes: as for B4
DR5 KD (mut/wt) (DR5-IgG [3]): 1200 ratio | IC50 ratio (mutant/wt) (DcR2-IgG): 18 ratio | IC50 ratio (mutant/wt) (DcR1 receptor-IgG): 4 ratio

B15: Apo2L.DR5-8B (ligand)
chain: VRERGPQRVAAHITGTRGRSNTLSSPNSKNEKALGRKINSWESSRSGHSFLSNLHLRNGELVIHEKGFYYIYSQTQFKFREEIKENTKNDKQMVQYIYKYTSYPDPILLMKSARNSCWSKDAEYGLYSIYQGGIFELKENDRIFVSVTNEHLIDMDHEASFFGAFLVG
notes: as for B5
DR5-binding (ratio relative to wild-type Apo2L) (DR5-IgG [1]): 0.6 ratio

B16: DR4-selective phage clone 11 (ligand)
chain: SEETISTVQEKQQNISPLVRERGPQRVAAHITGTRGRSNTLSSPNSKNEKALGRKINSWESSRSGHSFLSNLHLRNGELVIHEKGFYYIYSQTAFRFSEEIKEGTSNDKQMVQYIYKWTDYPDPILLMKSARNSCWSKDAEYGLYSIYQGGIFELKENDRIFVSVTNEHLIDMDHEASFFGAFLVG
notes: also called DR4-11
binding result (DR5-IgG [5]): no binding (tested: 1000 nM) | binding result (BSA): no binding

B17: DR4-selective phage clone 13 (ligand)
chain: SEETISTVQEKQQNISPLVRERGPQRVAAHITGTRGRSNTLSSPNSKNEKALGRKINSWESSRSGHSFLSNLHLRNGELVIHEKGFYYIYSQTAFRFKEEIKEGTGNDKQMVQYIYKWTDYPDPILLMKSARNSCWSKDAEYGLYSIYQGGIFELKENDRIFVSVTNEHLIDMDHEASFFGAFLVG
notes: also called DR4-13
binding result (DR5-IgG [5]): no binding (tested: 1000 nM) | binding result (BSA): no binding
